Reference: publication PMC12749690

Legend:
[1] = target: CtpA_(F105R) mutant (Helicobacter pylori G27); experiment: crystal structure; sitting-drop vapour diffusion; wild type: 100 mM bis-Tris-HCl pH 6.5, 100 mM magnesium chloride, 25% PEG 3350, 16 °C; F105R: Morpheus condition A8
[2] = target: Recombinant HP1076 protein (Helicobacter pylori); experiment: MST; CtpA_(S300A) diluted from 165 μM to 5.04 nM, mixed 1:1 with 45 nM RED-NHS-labelled HP1076; Monolith NT.115, 70% excitation power, 40% MST power, 20 °C
[3] = target: CtpA_(S300A/K325A/Q329A) triple mutant (CtpATM) (Helicobacter pylori G27); experiment: cryo-EM structure; 2 mg/ml protein on Quantifoil R1.2/1.3 grids, Titan Krios 300 kV
[4] = target: CtpAΔN46 (residues 47-454), wild-type H. pylori CtpA (Helicobacter pylori G27); experiment: crystal structure; sitting-drop vapour diffusion; wild type: 100 mM bis-Tris-HCl pH 6.5, 100 mM magnesium chloride, 25% PEG 3350, 16 °C; F105R: Morpheus condition A8
[5] = target: CtpAΔN46 (residues 47-454), wild-type H. pylori CtpA (Helicobacter pylori G27); experiment: AUC; sedimentation velocity, absorbance, 28,000 rpm, 16 °C, c(s) model in SEDFIT
[6] = target: CtpAΔN46 (residues 47-454), wild-type H. pylori CtpA (Helicobacter pylori G27); experiment: cryo-EM structure; 2 mg/ml protein on Quantifoil R1.2/1.3 grids, Titan Krios 300 kV

Substance CtpA_(F105R) mutant (enzyme) has a stoichiometry N [1] of 6.
Substance “CtpA_(S300A) (inactive mutant of CtpAΔN46) (enzyme)” has a Kd [2] of 15.4 µM.
In the case of “CtpA_(S300A/K325A/Q329A) triple mutant (CtpATM) (enzyme)”, the stoichiometry N [3] is reported as 6.
In the case of “CtpAΔN46 (residues 47-454), wild-type H. pylori CtpA (enzyme)”, the stoichiometry N [4] is reported as 6, the stoichiometry N [5] is reported as 6 and the stoichiometry N [6] is reported as 6.
